± gives the uncertainty stated by the source.

B1: Far upstream element-binding protein 3, residues 75 to 150; numbered along this chain, Q96I24 (parent)
chain: RTVITEEFKVPDKMVGFIIGRGGEQISRIQAESGCKIQIASESSGIPERPCVLTGTPESIEQAKRLLGQIVDRCRN

Variants of B1 are the subject of this data set. As to the kind of experiment: abundance fitness (aPCA) (normalised: wild type 0, dead -1); higher = more abundant; growth selection in yeast, the domain comes from the species named. To be noted: Homo sapiens.
For RTVITEEFKVPDKMVGFIIGRGGEQISRIQAESGCKIQIASESSGIPERPCVLTGTPESIEQAKRLLGQIHDRCRN [V71H], the abundance fitness was -0.21 ± 0.054.

For RTVITEEFKVPDKMVGFIIGRGGEQISRIQAESGCKIQIASESSGIPERPCVLTGTPESIEQAKRLLGQIDDRCRN [V71D], the abundance fitness is -0.159 ± 0.046.

For the variant RTVITEEFKVPDKMVGFIIGRGGEQISRIQAESGCKIQIASESSGIPERPCVLTGTPESIEQAKRLLGQIEDRCRN [V71E], the abundance fitness is -0.073 ± 0.034.

Turning to RTVITEEFKVPDKMVGFIIGRGGEQISRIQAESGCKIQIASESSGIPERPCVLTGTPESIEQAKRLLGQIIDRCRN [V71I], the abundance fitness is -0.018 ± 0.067.

With RTVITEEFKVPDKMVGFIIGRGGEQISRIQAESGCKIQIASESSGIPERPCVLTGTPESIEQAKRLPGQIVDRCRN [L67P], the abundance fitness was -0.649 ± 0.091.

With RTVITEEFKVPDKMVGFIIGRGGEQISRIQAESGCKIQIASESSGIPERPCVLTGTPESIEQAKRLRGQIVDRCRN [L67R], the abundance fitness was -1.01 ± 0.051.

For the variant RTVITEEFKVPDKMVGFIIGRGGEQISRIQAESGCKIQIASESSGIPERPCVLTGTPESIEQAKRLKGQIVDRCRN [L67K], the abundance fitness was -0.834 ± 0.07.

As for RTVITEEFKVPDKMVGFIIGRGGEQISRIQAESGCKIQIASESSGIPERPCVLTGTPESIEQAKRLYGQIVDRCRN [L67Y], the abundance fitness is -1.04 ± 0.13.

For the variant RTVITEEFKVPDKMVGFIIGRGGEQISRIQAESGCKIQIASESSGIPERPCVLTGTPESIEQAKRLNGQIVDRCRN [L67N], the abundance fitness was -0.884 ± 0.1.

With RTVITEEFKVPDKMVGFIIGRGGEQISRIQAESGCKIQIASESSGIPERPCVLTGTPESIEQAKRLQGQIVDRCRN [L67Q], the abundance fitness was -0.839 ± 0.085.

Regarding RTVITEEFKVPDKMVGFIIGRGGEQISRIQAESGCKIQIASESSGIPERPCVLTGTPESIEQAKRLIGQIVDRCRN [L67I], the abundance fitness is -0.131 ± 0.075.

On to RTVITEEFKVPDKMVGFIIGRGGEQISRIQAESGCKIQIASESSGIPERPCVLTGTPESIEQAKRLGGQIVDRCRN [L67G], for which the abundance fitness was -0.864 ± 0.042.

As for RTVITEEFKVPDKMVGFIIGRGGEQISRIQAESGCKIQIASESSGIPERPCVLTGTPESIEQAKRLSGQIVDRCRN [L67S], the abundance fitness was -0.811 ± 0.049.

With RTVITEEFKVPDKMVGFIIGRGGEQISRIQAESGCKIQIASESSGIPERPCVLTGTPESIEQAKRLWGQIVDRCRN [L67W], the abundance fitness is -0.981 ± 0.059.

For the variant RTVITEEFKVPDKMVGFIIGRGGEQISRIQAESGCKIQIASESSGIPERPCVLTGTPESIEQAKRLTGQIVDRCRN [L67T], the abundance fitness is -0.666 ± 0.058.

Regarding RTVITEEFKVPDKMVGFIIGRGGEQISRIQAESGCKIQIASESSGIPERPCVLTGTPESIEQAKRLHGQIVDRCRN [L67H], the abundance fitness is -0.908 ± 0.21.

With RTVITEEFKVPDKMVGFIIGRGGEQISRIQAESGCKIQIASESSGIPERPCVLTGTPESIEQAKRLMGQIVDRCRN [L67M], the abundance fitness was -0.099 ± 0.046.

In the case of RTVITEEFKVPDKMVGFIIGRGGEQISRIQAESGCKIQIASESSGIPERPCVLTGTPESIEQAKRLLGQTVDRCRN [I70T], the abundance fitness turned out to be 0.014 ± 0.046.

With RTVITEEFKVPDKMVGFIIGRGGEQISRIQAESGCKIQIASESSGIPERPCVLTGTPESIEQAKRLLGQYVDRCRN [I70Y], the abundance fitness came out at 0.044 ± 0.052.

Regarding RTVITEEFKVPDKMVGFIIGRGGEQISRIQAESGCKIQIASESSGIPERPCVLTGTPESIEQAKRLLGQGVDRCRN [I70G], the abundance fitness is -0.205 ± 0.027.

For RTVITEEFKVPDKMVGFIIGRGGEQISRIQAESGCKIQIASESSGIPERPCVLTGTPESIEQAKRLLGQNVDRCRN [I70N], the abundance fitness was -0.261 ± 0.087.

For RTVITEEFKVPDKMVGFIIGRGGEQISRIQAESGCKIQIASESSGIPERPCVLTGTPESIEQAKRLLGQQVDRCRN [I70Q], the abundance fitness was -0.064 ± 0.043.

Regarding RTVITEEFKVPDKMVGFIIGRGGEQISRIQAESGCKIQIASESSGIPERPCVLTGTPESIEQAKRLLGQRVDRCRN [I70R], the abundance fitness was -0.024 ± 0.028.

RTVITEEFKVPDKMVGFIIGRGGEQISRIQAESGCKIQIASESSGIPERPCVLTGTPESIEQAKRLLGQHVDRCRN [I70H]: the abundance fitness was -0.096 ± 0.055.

RTVITEEFKVPDKMVGFIIGRGGEQISRIQAESGCKIQIASESSGIPERPCVLTGTPESIEQAKRLLGQWVDRCRN [I70W]: the abundance fitness is -0.102 ± 0.035.

For the variant RTVITEEFKVPDKMVGFIIGRGGEQISRIQAESGCKIQIASESSGIPERPCVLTGTPESIEQAKRLLGQDVDRCRN [I70D], the abundance fitness was -0.209 ± 0.056.

With RTVITEEFKVPDKMVGFIIGRGGEQISRIQAESGCKIQIASESSGIPERPCVLTGTPESIEQAKRLLGQVVDRCRN [I70V], the abundance fitness was found to be 0.024 ± 0.031.

Take RTVITEEFKVPDKMVGFIIGRGGEQISRIQAESGCKIQIASESSGIPERPCVLTGTPESIEQAKRLLGQPVDRCRN [I70P]: the abundance fitness was -0.335 ± 0.051.

For RTVITEEFKVPDKMVGFIIGRGGEQISRIQAESGCKIQIASESSGIPERPCVLTGTPESIEQAKRLLGQLVDRCRN [I70L], the abundance fitness was -0.035 ± 0.034.

For the variant RTVITEEFKVPDKMVGFIIGRGGEQISRIQAESGCKIQIASESSGIPERPCVLTGTPESIEQAKRLLGQAVDRCRN [I70A], the abundance fitness stood at 0.05 ± 0.034.

RTVITEEFKVPDKMVGFIIGRGGEQISRIQAESGCKIQIASESSGIPERPCVLTGTPESIEQAKRLLGQCVDRCRN [I70C]: the abundance fitness was -0.023 ± 0.039.

On to RTVITEEFKVPDKMVGFIIGRGGEQISRIQAESGCKIQIASESSGIPERPCVLTGTPESIEQAKRLLGQEVDRCRN [I70E], for which the abundance fitness is -0.004 ± 0.035.

RTVITEEFKVPDKMVGFIIGRGGEQISRIQAESGCKIQIASESSGIPERPCVLTGTPESIEQAKRLLGQKVDRCRN [I70K]: the abundance fitness is -0.138 ± 0.044.

In the case of RTVITEEFKVPDKMVGFIIGRGGEQISRIQAESGCKIQIASESSGIPERPCVLTGTPESIEQAKRLLGQFVDRCRN [I70F], the abundance fitness was -0.044 ± 0.05.

On to RTVITEEFKVPDKMVGFIIGRGGEQISRIQAESGCKIQIASESSGIPERPCVLTGTPESIEQAKRLLGQMVDRCRN [I70M], for which the abundance fitness is -0.013 ± 0.04.

For the variant RTVITEEFKVPDKMVGFIIGRGGEQISRIQAESGCKIQIASESSGIPERPCVLTGTPESIEQAKRLLGQSVDRCRN [I70S], the abundance fitness was -0.055 ± 0.034.

These data come from the Human Domainome abundance scans (Beltran et al. 2025).
